Measurements from patent US20090068679A1.

Key:
[1] = biological target: recombinant human PlGF (R&D Systems, Catalog No. 264-PG/CF) (human) (UniProt P49763); test: sandwich ELISA: mAb 0.1 ug/ml on anti-mouse IgG plate, PlGF 0.1 ug/ml, anti-PlGF-POD
[2] = biological target: recombinant human PlGF (R&D Systems, Catalog No. 264-PG/CF) (human) (UniProt P49763); test: sandwich ELISA: mAb coated 3 ug/ml; PlGF 1.56 ng/ml; anti-PlGF-POD
[3] = biological target: P/GF/sFlt-1 complex (gP/GF) (human) (UniProt P49763); test: ELISA: PlGF 1 ug/ml on plate-captured Flt-1/Fc 1 ug/ml; mAb 1.0 ug/ml; anti-mouse IgG-POD
[4] = biological target: recombinant human PlGF (R&D Systems, Catalog No. 264-PG/CF) (human) (UniProt P49763); test: sandwich ELISA: mAb 1.0 ug/ml on anti-mouse IgG plate, PlGF 0.1 ug/ml, anti-PlGF-POD
[5] = biological target: P/GF/sFlt-1 complex (gP/GF) (human) (UniProt P49763); test: sandwich ELISA: mAb coated 3 ug/ml; PlGF 0.78 + Flt-1/Fc 400 (ng/ml) pre-incubated; anti-VEGF R1-POD
[6] = biological target: recombinant human PlGF (R&D Systems, Catalog No. 264-PG/CF) (human) (UniProt P49763); test: sandwich ELISA: mAb coated 3 ug/ml; PlGF 50 ng/ml; anti-PlGF-POD
[7] = biological target: P/GF/sFlt-1 complex (gP/GF) (human) (UniProt P49763); test: sandwich ELISA: mAb coated 3 ug/ml; PlGF 0.39 + Flt-1/Fc 400 (ng/ml) pre-incubated; anti-VEGF R1-POD
[8] = biological target: recombinant human PlGF (R&D Systems, Catalog No. 264-PG/CF) (human) (UniProt P49763); test: sandwich ELISA: mAb coated 3 ug/ml; PlGF 6.25 ng/ml; anti-PlGF-POD
[9] = biological target: P/GF/sFlt-1 complex (gP/GF) (human) (UniProt P49763); test: sandwich ELISA: mAb coated 3 ug/ml; PlGF 1.56 + Flt-1/Fc 400 (ng/ml) pre-incubated; anti-VEGF R1-POD
[10] = biological target: P/GF/sFlt-1 complex (gP/GF) (human) (UniProt P49763); test: sandwich ELISA: mAb coated 3 ug/ml; PlGF 25 + Flt-1/Fc 400 (ng/ml) pre-incubated; anti-VEGF R1-POD
[11] = biological target: recombinant human PlGF (R&D Systems, Catalog No. 264-PG/CF) (human) (UniProt P49763); test: sandwich ELISA: mAb coated 3 ug/ml; PlGF 0.78 ng/ml; anti-PlGF-POD
[12] = biological target: P/GF/sFlt-1 complex (gP/GF) (human) (UniProt P49763); test: sandwich ELISA: mAb coated 3 ug/ml; PlGF 12.5 + Flt-1/Fc 400 (ng/ml) pre-incubated; anti-VEGF R1-POD
[13] = biological target: P/GF/sFlt-1 complex (gP/GF) (human) (UniProt P49763); test: ELISA: PlGF 1 ug/ml on plate-captured Flt-1/Fc 1 ug/ml; mAb 0.1 ug/ml; anti-mouse IgG-POD
[14] = biological target: recombinant human PlGF (R&D Systems, Catalog No. 264-PG/CF) (human) (UniProt P49763); test: sandwich ELISA: mAb coated 3 ug/ml; PlGF 3.13 ng/ml; anti-PlGF-POD
[15] = biological target: recombinant human PlGF (R&D Systems, Catalog No. 264-PG/CF) (human) (UniProt P49763); test: sandwich ELISA: mAb coated 3 ug/ml; PlGF 25 ng/ml; anti-PlGF-POD
[16] = biological target: P/GF/sFlt-1 complex (gP/GF) (human) (UniProt P49763); test: sandwich ELISA: mAb coated 3 ug/ml; PlGF 6.25 + Flt-1/Fc 400 (ng/ml) pre-incubated; anti-VEGF R1-POD
[17] = biological target: P/GF/sFlt-1 complex (gP/GF) (human) (UniProt P49763); test: sandwich ELISA: mAb coated 3 ug/ml; PlGF 3.13 + Flt-1/Fc 400 (ng/ml) pre-incubated; anti-VEGF R1-POD
[18] = biological target: recombinant human PlGF (R&D Systems, Catalog No. 264-PG/CF) (human) (UniProt P49763); test: sandwich ELISA: mAb coated 3 ug/ml; PlGF 12.5 ng/ml; anti-PlGF-POD

antibody MAB264 from R&D Systems was tested, and the Extinction at 450 nm [1] was 1.9, the Extinction at 450 nm [2] was 0.081 and the Extinction at 450 nm [3] was 0.691. The Extinction at 450 nm [4] was 2.5, the Extinction at 450 nm [5] was 0.146 and the Extinction at 450 nm [6] was 2.5. For the same substance, the Extinction at 450 nm [7] was 0.094, the Extinction at 450 nm [8] was 0.468 and the Extinction at 450 nm [9] was 0.272. It also gave an Extinction at 450 nm [10] of 2.19, an Extinction at 450 nm [11] of 0.05 and an Extinction at 450 nm [12] of 1.61. The Extinction at 450 nm [13] was 0.217, the Extinction at 450 nm [14] was 0.232 and the Extinction at 450 nm [15] was 1.47. It also gave an Extinction at 450 nm [16] of 0.883, an Extinction at 450 nm [17] of 0.529 and an Extinction at 450 nm [18] of 0.885.
